# Molecular target: PaMprF H566C mutant (Pseudomonas aeruginosa)
# Assay: cross-linking + native gel or EMSA; purified enzymes in GDN and in nanodisc, with cross-linker; SDS added to the sample before loading on the BN-PAGE gel
substance,measurement,value
PaMprF H566C mutant (enzyme),stoichiometry N,2

# From article PMC13534887
